Assay results published in article PMC11154593, “New insights into the domain of unknown function (DUF) of EccC5, the pivotal ATPase providing the secretion driving force to the ESX-5 secretion system” (Acta Crystallographica. Section D, Structural Biology, 2024).
Where “and” joins values, the source holds several entries; their conditions need not be identical. Equal entries are not always repeated.

Target: the molecule itself
Test: SEC; […] (16/60) […]; 20 mM Tris-HCl pH 7.5, 150 mM NaCl ([…]) or 20 mM HEPES pH 7.5, 150 mM NaCl, 5 mM MgCl2 ([…]; 4°C

B1: DUF domain of EccC5 from M. tuberculosis (crystallographic construct, residues 1-417 with 17-118 rep (domain or fragment)
chain: MKRGFARPTPEKPPVIGSSGQESADSMDANYRWFHPAPNTLAAAVGSPRMWERKPDGKDLNFGVVRVGGSGFGRYQSVVYNLPKMVSLLVEPWYALVGEREQVLGLMRAIICQLAFSHGPDHVQMIVVSSDLDQWDWVKWLPHFGDSRRHDAAGNARMVYTSVREFAAEQAELFAGRGSFTPRHASSSAQTPTPHTVIIADVDDPQWEYVISAEGVDGVTFFDLTGSSMWTDIPERKLQFDKTGVIEALPRDRDTWMVIDDKAWFFALTDQVSIAEAEEFAQKLAQWRLA
notes: EccC5, M. tuberculosis, UniProt P9WNA5, residues 1-16 (before the removed transmembrane region); linker replacing residues 17-118; EccC5, M. tuberculosis, UniProt P9WNA5, residues 119-166; linker replacing residues 167-198; EccC5, M. tuberculosis, UniProt P9WNA5, residues 199-417; also called MtbEccC5 DUF; EccC5 DUF; not shown: His6, N-terminal, cleaved; SUMO, N-terminal, cleaved
stoichiometry N: 3 and 6
